From patent US20260265361A1 (PHRONTLINE BIOPHARMA SUZHOU, published 2026)

Experiments:
[1] = target: T1, recombinant human FcγRI protein (ACRO Biosystems, Cat. FCA-H52H1) (human, UniProt P12314 16-288, limits assumed); experiment: BLI (ForteBio Octet Red 96), human FcγRI immobilised on HIS1K sensors, 100 nM antibody; FcγRI table
T1 construct: also called human FcγRI receptor

[2] = target: T2, recombinant human FcRn (ACROBiosystems Cat FCM-H8286) (human, UniProt P55899 24-297; P61769 21-119); experiment: BLI (ForteBio Octet Red 96), human FcRn immobilised on SA sensors, pH 6.0 buffer, 100 nM antibody; FcRn table
T2 construct: also called human FcRn receptor
T2 sequence (P55899 24-297 limits assumed, chain 1 of 2): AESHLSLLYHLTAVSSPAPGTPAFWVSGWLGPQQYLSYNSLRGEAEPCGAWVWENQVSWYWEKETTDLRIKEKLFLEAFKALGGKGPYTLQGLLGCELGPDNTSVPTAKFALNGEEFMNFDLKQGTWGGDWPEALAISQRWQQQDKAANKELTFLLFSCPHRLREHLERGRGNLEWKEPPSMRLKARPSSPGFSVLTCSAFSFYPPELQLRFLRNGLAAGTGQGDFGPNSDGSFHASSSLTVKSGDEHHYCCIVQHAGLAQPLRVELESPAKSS
T2 sequence (P61769 21-119 limits assumed, chain 2 of 2): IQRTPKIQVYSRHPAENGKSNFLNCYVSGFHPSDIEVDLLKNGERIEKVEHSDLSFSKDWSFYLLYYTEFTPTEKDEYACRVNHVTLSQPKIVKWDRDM

[3] = target: T1, recombinant human FcγRI protein (ACRO …); experiment: BLI (ForteBio Octet Red 96), human FcγRI immobilised on HIS1K sensors, 100 nM antibody; FcγRI table, column Kdis
[4] = target: T2, recombinant human FcRn (ACROBiosystems …); experiment: BLI (ForteBio Octet Red 96), human FcRn immobilised on SA sensors, pH 6.0 buffer, 100 nM antibody; FcRn table, column Kdis
[5] = target: T3, Recombinant human EGFR protein (ACRO Biosystems, EGR-H5222) (human, UniProt P00533 25-645); experiment: ELISA, plate coated with recombinant human EGFR at 1 µg/mL, HRP-labelled secondary antibody, OD450; EGFR panel, table under the curves (unit from the concentration axis)
T3 construct: Bought protein

T1 sequence (P12314 16-288 limits assumed): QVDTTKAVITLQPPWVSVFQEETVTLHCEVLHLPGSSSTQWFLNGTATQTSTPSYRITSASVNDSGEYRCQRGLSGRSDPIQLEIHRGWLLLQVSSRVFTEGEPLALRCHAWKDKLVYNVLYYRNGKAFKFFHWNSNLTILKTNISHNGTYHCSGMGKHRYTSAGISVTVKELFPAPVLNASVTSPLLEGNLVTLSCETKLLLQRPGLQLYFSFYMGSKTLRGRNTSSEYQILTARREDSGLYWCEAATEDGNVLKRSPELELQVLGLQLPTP

Binder	Kd [1] [nM]	kon [1] [M⁻¹ s⁻¹]	Kd [2] [nM]	kon [2] [M⁻¹ s⁻¹]	koff [3] [s⁻¹]	koff [4] [s⁻¹]	EC50 [5] [µg/mL]
Fab-Fc/Fab-Fc bispecific antibody (zalutumumab anti-EGFR A half-antibody / pertuzumab anti-HER2 B half-antibody), M1 combination (K2/H2) (bispecific antibody, No linker named between Fab and Fc; also called M1 mutant combination) heavy 1: not shown light 1: not shown heavy 2: EVQLVESGGGLVQPGGSLRLSCAASGFTFTDYTMDWVRQAPGKGLEWVADVNPNSGGSIYNQRFKGRFTLSVDRSKNTLYLQMNSLRAEDTAVYYCARNLGPSFYFDYWGQGTLVTVSSASTKGPSVFPLAPSSKSTSGGTAALGCLVKDYFPEPVTVSWNSGALTSGVHTFPAVLQSSGLYSLSSVVTVPSSSLGTQTYICNVNHKPSNTKVDKKVEPKSCDKTHTCPPCPAPELLGGPSVFLFPPKPKDTLMISRTPEVTCVVVDVSHEDPEVKFNWYVDGVEVHNAKTKPREEQYNSTYRVVSVLTVLHQDWLNGKEYKCKVSNKALPAPIEKTISKAKGQPREPQVYTLPPSREEMTKNQVSLSCAVKGFYPSDIAVEWESNGQPENNYKTTPPVLRSDGSFFLVSKLTVDKSRWQQGNVFSCSVMHEALHNHYTQKSLSLSPGK light 2: not shown	10	459000	14.4	1.82e+06	0.00461	0.0261	0.017
Fab-Fc/Fab-Fc bispecific antibody (zalutumumab anti-EGFR A half-antibody / pertuzumab anti-HER2 B half-antibody), M2 combination (K0/H8) (bispecific antibody, No linker named between Fab and Fc; also called M2 mutant combination) heavy 1: not shown light 1: not shown heavy 2: EVQLVESGGGLVQPGGSLRLSCAASGFTFTDYTMDWVRQAPGKGLEWVADVNPNSGGSIYNQRFKGRFTLSVDRSKNTLYLQMNSLRAEDTAVYYCARNLGPSFYFDYWGQGTLVTVSSASTKGPSVFPLAPSSKSTSGGTAALGCLVKDYFPEPVTVSWNSGALTSGVHTFPAVLQSSGLYSLSSVVTVPSSSLGTQTYICNVNHKPSNTKVDKKVEPKSCDKTHTCPPCPAPELLGGPSVFLFPPKPKDTLMISRTPEVTCVVVDVSHEDPEVKFNWYVDGVEVHNAKTKPREEQYNSTYRVVSVLTVLHQDWLNGKEYKCKVSNKALPAPIEKTISKAKGQPREPQVYTYPPSREEMTKNQVSLSCAVKGFYPSDIAVEWESNGQPENNYKTTPPVLDSDGSFFLVSKLTVDKSRWQQGNVFSCSVMHEALHNHYTQKSLSLSPGK light 2: not shown	10	452000	17.6	1.69e+06	0.00453	0.0296	0.0206
Fab-Fc/Fab-Fc bispecific antibody (zalutumumab anti-EGFR A half-antibody / pertuzumab anti-HER2 B half-antibody), M3 combination (K2/H7) (bispecific antibody, No linker named between Fab and Fc; also called M3 mutant combination) heavy 1: not shown light 1: not shown heavy 2: EVQLVESGGGLVQPGGSLRLSCAASGFTFTDYTMDWVRQAPGKGLEWVADVNPNSGGSIYNQRFKGRFTLSVDRSKNTLYLQMNSLRAEDTAVYYCARNLGPSFYFDYWGQGTLVTVSSASTKGPSVFPLAPSSKSTSGGTAALGCLVKDYFPEPVTVSWNSGALTSGVHTFPAVLQSSGLYSLSSVVTVPSSSLGTQTYICNVNHKPSNTKVDKKVEPKSCDKTHTCPPCPAPELLGGPSVFLFPPKPKDTLMISRTPEVTCVVVDVSHEDPEVKFNWYVDGVEVHNAKTKPREEQYNSTYRVVSVLTVLHQDWLNGKEYKCKVSNKALPAPIEKTISKAKGQPREPQVYTYPPSREEMTKNQVSLSCAVKGFYPSDIAVEWESNGQPENNYKTTPPVLRSDGSFFLVSKLTVDKSRWQQGNVFSCSVMHEALHNHYTQKSLSLSPGK light 2: not shown	10.3	455000	17.7	1.55e+06	0.00471	0.0274	0.0221
